Measurements as given in patent US20170066831A1 (Janssen / Centocor, published 2017).

Legend:
[1] = molecular target: T1, human ST2L extracellular domain with C-terminal His6 tag (human, UniProt Q01638 19-328); assay: RLB ELISA: biotinylated IL-33 on coated huST2L-ECD, antibody titrated
T1 construct: also called huST2L-ECD; ST2L-ECD
T1 sequence: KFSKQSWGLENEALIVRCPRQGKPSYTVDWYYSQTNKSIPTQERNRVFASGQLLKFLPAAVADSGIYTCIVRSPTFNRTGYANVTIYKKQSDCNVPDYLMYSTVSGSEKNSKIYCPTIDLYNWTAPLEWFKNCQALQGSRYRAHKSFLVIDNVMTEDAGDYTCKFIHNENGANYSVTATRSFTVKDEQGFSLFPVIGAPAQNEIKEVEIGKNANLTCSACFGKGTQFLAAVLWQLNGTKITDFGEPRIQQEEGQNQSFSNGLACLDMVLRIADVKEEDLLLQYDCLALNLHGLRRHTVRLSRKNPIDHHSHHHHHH
In short: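 Plates coated 16 h at 4 °C with His6-tagged ST2L-ECD (human aa 19-328, 4 μg/ml; cyno aa 19-321, 2 μg/ml). Titrated mAbs applied 1 h at RT, then biotinylated IL-33 added 30 min (human 112-270 at 100 ng/ml final; cyno 112-269 at 200 ng/ml final). Bound ligand detected with streptavidin-HRP/TMB, OD450.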

[2] = molecular target: T2, cynomolgus (Macaca fascicularis) ST2L extracellular domain with C-terminal His6 tag (Macaca fascicularis (cynomolgus), UniProt Q01638 19-321 (human entry)); assay: SPR, mAb captured, ST2L-ECD in solution
T2 construct: also called cyno ST2L-ECD; cynoST2L-ECD
T2 chain: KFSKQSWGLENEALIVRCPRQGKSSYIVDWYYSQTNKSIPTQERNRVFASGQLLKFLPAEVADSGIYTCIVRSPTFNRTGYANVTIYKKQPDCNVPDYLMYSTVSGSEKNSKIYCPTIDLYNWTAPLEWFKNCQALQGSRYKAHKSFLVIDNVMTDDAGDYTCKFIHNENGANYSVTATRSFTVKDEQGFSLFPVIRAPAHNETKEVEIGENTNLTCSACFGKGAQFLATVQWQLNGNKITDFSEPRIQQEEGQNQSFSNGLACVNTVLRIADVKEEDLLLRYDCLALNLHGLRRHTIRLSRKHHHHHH

[3] = molecular target: T1, human ST2L extracellular domain with …; assay: SPR, mAb captured, ST2L-ECD in solution
[4] = molecular target: T3, human ST2L, full length, on cells (human, UniProt Q01638 19-556); assay: cell-based or functional assay
T3 sequence: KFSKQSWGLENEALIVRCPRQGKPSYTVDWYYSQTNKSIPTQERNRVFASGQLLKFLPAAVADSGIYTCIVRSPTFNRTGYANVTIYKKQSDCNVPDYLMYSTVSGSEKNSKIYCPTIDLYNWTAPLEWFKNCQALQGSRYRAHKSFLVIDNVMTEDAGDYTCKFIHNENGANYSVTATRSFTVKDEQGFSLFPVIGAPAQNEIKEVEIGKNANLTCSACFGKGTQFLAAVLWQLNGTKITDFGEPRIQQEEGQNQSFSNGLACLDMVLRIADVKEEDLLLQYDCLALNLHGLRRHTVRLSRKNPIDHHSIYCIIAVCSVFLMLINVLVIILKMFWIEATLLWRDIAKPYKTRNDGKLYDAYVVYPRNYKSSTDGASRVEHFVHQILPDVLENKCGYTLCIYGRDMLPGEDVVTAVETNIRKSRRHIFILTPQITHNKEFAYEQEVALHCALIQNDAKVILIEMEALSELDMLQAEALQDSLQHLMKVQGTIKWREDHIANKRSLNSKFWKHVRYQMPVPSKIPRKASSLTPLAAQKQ

[5] = molecular target: T4, HH-ST2L (human ST2L Domains I and II), wild type (human, UniProt Q01638 19-205); assay: SPR, ProteOn XPR36, 25 C; mAb captured on anti-Fc surface, ST2L-D1D2 (HH-ST2L) protein injected; 1:1 model
T4 construct: also called ST2L-D1D2
T4 sequence: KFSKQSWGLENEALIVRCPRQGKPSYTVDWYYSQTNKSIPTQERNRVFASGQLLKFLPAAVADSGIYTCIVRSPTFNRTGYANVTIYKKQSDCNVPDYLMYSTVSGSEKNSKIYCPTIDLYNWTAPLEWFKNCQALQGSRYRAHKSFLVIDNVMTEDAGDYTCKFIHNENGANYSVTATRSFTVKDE
Experimental: Binding studies were performed using the ProteOn XPR36 Protein Interaction Array system (Bio-Rad) (Bravman T, et al. Anal Biochem 358:281-288, 2006). […] Individual anti-ST2L mAb was then captured by flowing (1 μg/mL) antibody solution prepared in PBS containing 0.5% Nonidet P-40 and 0.5% Na-deoxycholate). The signal in the surfaces reached ˜250 resonance units (RU, 1 RU=1 pg protein/mm²) in the anti-Fc-coated surfaces, confirming that these antibodies specifically capture anti-ST2L mAbs. After 90° rotation of the fluid system, wild type of ST2L-D1D2 or variant proteins (0.5 mg/mL in PBS containing 0.5% Nonidet P-40 and 0.5% Na-deoxycholate) was injected in the parallel flow channels. All of these assays were performed at 25° C. The ST2L-D1D2-dependent signals on the surfaces were obtained by double referencing, subtracting the response observed on surfaces immobilizing the antibodies alone, and the signal observed injecting the vehicle alone (which allows correction for binding-independent responses). The resulting sensorgrams were fitted by the simplest 1:1 interaction model (ProteOn analysis software), to obtain the corresponding association and dissociation rate constants (kₐ and kd).

B1: STLM208 (antibody, V domains shown)
VH: EVQLLESGGGLVQPGGSLRLSCAASGFTFSIYDMIWVRQAPGKGLEWVSSIRGEGGGTYYADSVKGRFTISRDNSKNTLYLQMNSLRAEDTAVYYCARDPWSTEGSFFVLDYWGQGTLVTVSS
VL: EIVLTQSPATLSLSPGERATLSCRASQSVDDDLAWYQQKPGQAPRLLIYDASNRATGIPARFSGSGSGTDFTLTISSLEPEDFAVYYCQQYITAPLTFGQGTKVEIK
notes: frameworks VH3-23 / Vk-L6
[1]
  IC50: 0.47 µg/mL
[2]
  Kd: 5 pM
  koff: 7.02e-05 s⁻¹
  kon: 1.39e+07 M⁻¹ s⁻¹
[3]
  Kd: 0.011 nM
  koff: 6.76e-05 s⁻¹
  kon: 5.97e+06 M⁻¹ s⁻¹
[4]
  RGA IC50: 0.61 µg/mL
[5]
  koff: 0.000122 s⁻¹
  kon: 1.14e+07 M⁻¹ s⁻¹
